Assay results reported in the nanobody polyreactivity screen of Harvey et al. (2022).

test: yeast display, Sf9 membrane polyspecificity reagent, FACS + sequencing; frameworks hold sequencing errors
Summary of the method: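 Synthetic nanobody libraries on Saccharomyces cerevisiae BJ5465 were galactose-induced for 36–48 hours, stained 1 hour at 4 °C with 10% biotinylated, detergent-solubilized Sf9 membrane reagent and enriched on streptavidin microbeads. FACS then separated cells into low and high (top ~1%) gates by anti-HA (expression) and streptavidin (reagent binding) fluorescence. Genes were colony-PCR amplified, MiSeq 2 × 250 sequenced and CDR-length filtered. A clone's polyreactivity label is that of its gate of origin.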

Row | Sequence | polyreactivity (PSR sort gate)
1 | QVQLVESGGGLVQAGGSLRLSCAASGITFWNAMGWYRQAPGKERELVAAITSSGGSTYYADSVKGRFTISRDNAKNTVYLQMNSLKPEDTAVYYCAADYGRTRYDMDYWGQGTQVTVSS | low polyreactivity
2 | QVQLVESGGGLVQAGGSLRLSCAASGITFWNNAMGWYRQAPGKERELVATISSNGGRTYYADSVKGRFTISRDNAKNSVYLQMNSLKPEDTAVYYCNAARRAYGYNYWGQGTQVTVSS | low polyreactivity
3 | QVQLVESGGGLVQAGGSLRLSCAASGITFWPYAMGWYRQAPGKERELVAAISFIDGSTSYADSVKGRFTISRDNAKNTVYLQMNSLKPEDTAVYYCAAVIPGPSIWLYYYWGQGTQVTVSS | low polyreactivity
4 | QVQLVESGGGLVQAGGSLRLSCAASGITFWSNAMGWYRQAPGKERELVAAITSGGNTNYADSVKGRFTISRDNAKNTVYLQMNSLKPEDTAVYYCAKRWTAREPWRKGMGYWGQGTQVTVSS | high polyreactivity
5 | QVQLVESGGGLVQAGGSLRLSCAASGITFYDNAMGWDRQAPGKEREFVAAISKSGGNTYYADSVKGRFTISRDNAKNTVYLQMNSLKPEDTAVYYCDARTQAFSRKGYGYWGQGTQVTVSS | high polyreactivity
6 | QVQLVESGGGLVQAGGSLRLSCAASGITFYDNAMGWYRQAPGKERELVAAIRSGDSTYYADSVKGRFTISRDNAKNTVYLQMNSLKPEDTAVYYCAARTPWVYYWRFYYWGQGTQVTVSS | high polyreactivity
7 | QVQLVESGGGLVQAGGSLRLSCAASGITFYDNAMGWYRQAPGKERELVAGISYDGDSTYADSVKGRFTISRDNAKNTVYLQMNSLKPEDTAVYYCAALGPYDWLWAGDYWGQGTQVTVSS | low polyreactivity
8 | QVQLVESGGGLVQAGGSLRLSCAASGITFYDNVMGWYRQAPGKERELVAAITSGGSTNYADSVKGRFTISRDNAKNTVYLQMNSLKPEDTAVYYCAAQPRVDYEFPYRYGYWGQGTQVTVSS | low polyreactivity
9 | QVQLVESGGGLVQAGGSLRLSCAASGITFYDYAMGRYRQAPGKERELVAAISGGGITYYADSVKGRFTISRDNAKNTVYLQMNSLKPEDTAVYYCAAVYIAGYGYDYWGQGTQVTVSS | low polyreactivity
10 | QVQLVESGGGLVQAGGSLRLSCAASGITFYDYAMGWYRQAPGKERELVAAISFSGSRTYYADSVKGRFTISRDNAKNTVYLQMNCLKPEDTAVYYCATDTQDLHGYSWFDYWGQGTQVTVSS | high polyreactivity
11 | QVQLVESGGGLVQAGGSLRLSCAASGITFYFYAMGWYRQAPGKERELVAAITSTGTSTYYADSVKGRFTISRDNAKNTVYLQMNSLKPEDSAVYYCAKDQHYPHYQPYWSRYDYWGQGTQVTVSS | low polyreactivity
12 | QVQLVESGGGLVQAGGSLRLSCAASGITFYGKAMGWYREAPGKERELGAAITGGGGTNYADSVKGRFTISRDNAKKTVYLQMTSLKPEDTAVYYCNRDYFVWFQRGQYKRGSSWYDNWGQGTQVTVSS | low polyreactivity
13 | QVQLVESGGGLVQAGGSLRLSCAASGITFYGNAMGRYRQAPGKEREVVAAISSSGGTTYYADSVKGRFTISRDNAKNTVYLQMNSLKPEDTAVYFCNALHPVVYYGTYFNLRRYDYWGQGTQVTVSS | low polyreactivity
14 | QVQLVESGGGLVQAGGSLRLSCAASGITFYGNDMGWYRQAPGKERELVAAISANDGNTYYADSVKGRFTISRDNAKNTVYLQMNSLKPEDTAVYYCAAERYEDYTEYDYWGQGTQVTVSS | low polyreactivity
15 | QVQLVESGGGLVQAGGSLRLSCAASGITFYGYAMGWYRQAPGKERELVARISRSGGSTYYADSVKGRFTISRDNAKNTVYLQMNSLKPEDTAVYYCAAGYGPSGYTRYYWGQGTQVTVSS | high polyreactivity
16 | QVQLVESGGGLVQAGGSLRLSCAASGITFYKYVMGWYRQAPGKERELVARISKGGGSTYYADSVKGRFTISRDYAKNTVYLQMNSLKPEDTAVYYCNARGGYYVRSSAEYDYWGQGTQVTVSS | high polyreactivity
17 | QVQLVESGGGLVQAGGSLRLSCAASGITFYLYALGWYRQAPGKERELVAAISSSGGRTYYADSVKGRFTISRDNAKNTVYLQMNSLKPEDTAVYYCAARRYGVPPTYDYWGQGTQVTVSS | high polyreactivity
18 | QVQLVESGGGLVQAGGSLRLSCAASGITFYLYDMGWYRQAPGKERELVASITSDGSTDYADSVKGRFTISRDNAKNTVYLQMNSLKPEDTAVYYCNARVTYAWYRFGRSGDDSWGQGTQVTVSS | low polyreactivity
19 | QVQLVESGGGLVQAGGSLRLSCAASGITFYRNAMGWYRQAPGKEMELVAAITWNGGRTYYADSVKGRFTISRDNAKNTVYLQMNSLKPEDTAVYYCAADSGTRNLASYRYYYWGQGTQVTVSS | low polyreactivity
20 | QVQLVESGGGLVQAGGSLRLSCAASGITFYRNAMGWYRQAPGKERELVAAITWNGGRTYYADSVKGRFTISRDYAKNTVYLQMNSLKPEDSAVYYCAKRYGSTQSRYVYWGQGTQVTVSS | high polyreactivity
21 | QVQLVESGGGLVQAGGSLRLSCAASGITFYRYAMGWYRQAPGKDRELVAVISSGGSTNYADSVKGRFTISRDNAKNTVYLQMNSLKPEDTAVFYCNAVSTRFRVRTSDYWGQGTKVTVSS | high polyreactivity
22 | QVQLVESGGGLVQAGGSLRLSCAASGITFYRYAMGWYRQAPGKERELVAAINSSGGNTYYADSVKGRFTISRDNAKNTVYLQMNSLKPEDTAVYYCAADRVSWVKHYYWGQGTQVTVSS | high polyreactivity

Row | Sequence | polyreactivity (PSR sort gate)
23 | QVQLVESGGGLVQAGGSLRLSCAASGITFYRYAMGWYRQAPGKERELVAAISASDGSTYYADSVKGRFTISRDHAKNTVYLQMNSLKPEDTAVYYCNARKGYSYGHWGQGTQVTVSS | high polyreactivity
24 | QVQLVESGGGLVQAGGSLRLSCAASGITFYRYAMGWYRQAPGKERELVAAISRSGGSTYYADSVKGRFTISRDNAKNTVYLQMNSLKPEDTAGYYCAAYILGNRDGYEYWGQGTQVTVSS | high polyreactivity
25 | QVQLVESGGGLVQAGGSLRLSCAASGITFYSNAMGWYRQAPGKERELVATITRGGSTYYADSVKGRFTISRDNAKNTVYLQMNSLKPEDTAVYYCAADYSYRGREYGYWGQVTQVTVSS | low polyreactivity
26 | QVQLVESGGGLVQAGGSLRLSCAASGITFYVYTMGWYRQAPGKERELVAAINGSGGSTNYADSVKGRFTISRDNAKNTVYLLMNSLKPEDTAVYYCAADWSLRLYDYWGQGTQVTVSS | low polyreactivity
27 | QVQLVESGGGLVQAGGSLRLSCAASGITFYWNDMGWYRQATGKERELVAAIRRTAGSTYYADSVKGRFTISRDNAKNTVYLQMNSLKPEDTAVYYCAASRHFARHRGYYFRYDYWGQGTQVTVSS | high polyreactivity
28 | QVQLVESGGGLVQAGGSLRLSCAASGITFYYYAMGWYRQAPGKERELVASISSVGTTYYADSVKGRFTISGDNAKNTFYLEMNSLKPVDTAVYYCAAVDYVRYYPDEFDYWGQGTQVTVSS | low polyreactivity
29 | QVQLVESGGGLVQAGGSLRLSCAASGITFYYYAMGWYTQAPGKERELVAAISDNGSRTYYADSVKGRFTISRDNAQNTVYLQMNSLKPEDTAVYYCAAEGSYGYDYWGQGTQVTVSS | high polyreactivity
30 | QVQLVESGGGLVQAGGSLRLSCAASGITIFGYAMGWYRQAPRTERELVAAINYSGDSTYYADSVKGRFTISRDNAKNTVYLQMNSLKPEDTAVYYCAADVRPYYSAYRGRYYYWGQGTQVTVSS | high polyreactivity
31 | QVQLVESGGGLVQAGGSLRLSCAASGITIGSNVMGWYRQAPGKERELVAAISQSGGRTYYADSVKGRFTISRDNAKNTVYLQMNSLKPEYTAVYYCAKRQRSFYGRPMGDYWGQGTQVTVSS | high polyreactivity
32 | QVQLVESGGGLVQAGGSLRLSCAASGITIKRYDMGWYRQAPGKEREFVATISQSGTSTYYADSVKGRFTISRDNAKNTVYLQMNSLKPEDTAVYYCAAYYIGYWYGYYSWGQGTQVTVSS | low polyreactivity
33 | QVQLVESGGGLVQAGGSLRLSCAASGITIPYNAMGWYRQAPGKERELVAVISWSGGSTYYADSVKGRFTISRDNAKNTVYLQMNRQKPEDTAFYYCAAEPGGGYYYWGQGTKVTVSS | low polyreactivity
34 | QVQLVESGGGLVQAGGSLRLSCAASGITIRLSALGGYRQAPGNERELVAAITSGGSTYADSVKGRFTISRDNAKNTVYLQMNSLKPEDTAVYYCNAEALVNGGYDYWGQGTQVTVSS | high polyreactivity
35 | QVQLVESGGGLVQAGGSLRLSCAASGITIRRYAMGWYIQAPGKERELVAAITTGGGGTYYADSVKGRFTISRDNAKNTVYLQMNSLKPEDTAVYYCAATYWRTYPSYYWGQGTQVTVSS | high polyreactivity
36 | QVQLVESGGGLVQAGGSLRLSCAASGITISVNDMGWYRQAPGKERELVAAISSGDSTNYADSVKGRFTISRDNAKNTVYLQMNSLKPEDTAVSYCAALEGSLTGWQTYDYWGQGTQVTVSS | low polyreactivity
37 | QVQLVESGGGLVQAGGSLRLSCAASGITIVNYVMGWYRQPPGKERELVAAISIGGGTYYADSVKGRFTISRDNAKNTVYLQMNSLKPEDTAVYYWNASYGGLSFYIGVYDTGYDYWGQGTQVTVSS | low polyreactivity
38 | QVQLVESGGGLVQAGGSLRLSCAASGITIWNNAMGWSRQAPGKESELVATISSNGGRTYYADSVKGRFTISRDNAKNTVYLQMNSLKPEDTAVYYCNAARRAYGYNYWGQGTQVTVSS | low polyreactivity
39 | QVQLVESGGGLVQAGGSLRLSCAASGITLARNAMGWYRQAPGKERELVASITWSGGTTYYADSVKGRFTISRDNAKNTVYLQMNSLKPEDTAVYYCAASAKLHFYRTYRYNYWGQGTQVTVSS | high polyreactivity
40 | QVQLVESGGGLVQAGGSLRLSCAASGITLAYNVMGWYRQAPGKERELVAGITRSGGSTYYADSVKGRFTISRDNAKNTVYLQMNSLKPEDTAVYYCAAGFTYLNYTPWYRFNYWGQGTQVTVSS | high polyreactivity
41 | QVQLVESGGGLVQAGGSLRLSCAASGITLDNYVMGWYRQAPGKERELVAAISRTSGRTYYADSVKGRFTISRDNAKNTVYLQMNSLKPEDTAVYYCAAETGYTIRYDYWGQGTQVTVSS | high polyreactivity
42 | QVQLVESGGGLVQAGGSLRLSCAASGITLGTNAMGWYRQAPGKERELVAAIRRSGGSTYYADSVKGRFTISRDNAKNTVYLQMNSLKPEDTAVYYCAAVVSVNMYWGQGTQVTVSS | low polyreactivity
43 | QVQLVESGGGLVQAGGSLRLSCAASGITLGTYAMGWSRQAPGKERELVAGISTSGGSTYYADSVKGPFTISRDNAKNTVYLQMNSLKPEETAVYYCAKRRYGSGYYRYRGYDYWGQGTQVTVSS | high polyreactivity
